# Test results from PMC9579148.
# Experiments:
# [1] = target: recombinant SARS-CoV-2 M^pro (Proteros) (SARS-CoV-2); test: FRET enzymatic inhibition assay
# [2] = target: recombinant SARS-CoV-2 M^pro (Proteros) (SARS-CoV-2)
Substance,Kd [1] [nM],IC50 of inhibition of M^pro enzymatic activity (FRET substrate cleavage) [2] [nM]
"compound 4 (acetyl-Gly-Phe-His aldehyde, tripeptide derivative of AT1001)",1260,2510
compound 57 (BOC-Gly-Phe-His aldehyde) (peptide),3260,6490
compound 58 (octanoyl-Gly-Phe-His aldehyde) (peptide),1190,2370
